{"source": "paper doi:10.1101/2023.12.19.572259", "assay_in_all_cases": "SPR", "key": {"[1]": {"target": "monomeric streptavidin variant mSA, wild type"}, "[2]": {"target": "monomeric streptavidin variant mSA, wild type", "remark": "listed apart in the source"}, "[3]": {"target": "monomeric streptavidin variant mSA with the S27A mutation"}}, "note": "Where two headings read alike, the source gives them in different places.", "data": [{"molecule": "Smt3 SUMO protein biotinylated at the N-terminus with biotin C2 maleimide (from UniProt Q12306 1-101) (natural protein)", "values": [{"measurement": "Kd", "setting": "[1]", "value": 9.6, "unit": "nM"}]}, {"molecule": "4NBX.B-biotin103 variant v186_Fr (VHH) VHH: QVQLQESGGGLVQAGGSLRLSCAASGRTFSRSPMAWYRQPPGKEREFVAAGSSTGTTTYYADSVKGRFTISRDNAKNTVYLQMNSLKPEDTAVYYCAAAPLGCARKFAESAYWGQGTQVTVSS", "values": [{"measurement": "Kd", "setting": "[2]", "value": 0.2, "unit": "nM"}, {"measurement": "Kd", "setting": "[3]", "value": 54, "unit": "nM"}]}, {"molecule": "4NBX.B-biotin103 variant v149 (VHH) VHH: QVQLQESGGGLAQAGGSLRLSCAASGRTFSRSPMAWFRQPPGKEREFVAAGSSTGRTTYYADSVKGRFTISRDNAKNTVYLQMNSLKPEDTAVYYCAAAPYGCARYRDEYAYWGQGTQVTVSS", "values": [{"measurement": "Kd", "setting": "[2]", "value": 0.12, "unit": "nM"}, {"measurement": "fold higher ka than v119", "setting": "[2]", "value": 4, "unit": "fold"}, {"measurement": "fold lower kd than v119", "setting": "[2]", "value": 2, "unit": "fold"}]}, {"molecule": "4NBX.B-biotin103 variant v119 (VHH) VHH: QVQLQESGGGLAQAGGSLRLSCAASGRTFSHAPMAWFRQPPGKEREFVAAGSSTGRTTYYADSVKGRFTISRDNAKNTVYLQMNSLKPEDTAVYYCAAAPYGCSHYRDEYAYWGQGTQVTVSS", "values": [{"measurement": "Kd", "setting": "[2]", "value": 0.9, "unit": "nM"}]}]}
